In the nanobody polyreactivity screen of Harvey et al. (2022):

Assay: yeast display, Sf9 membrane polyspecificity reagent, FACS + sequencing; frameworks hold sequencing errors
In short: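 Polyreactivity labels are assigned by the sorting gate from which each nanobody was recovered. The gates were low and high (top ~1%), set on anti-HA fluorescence for expression and streptavidin fluorescence for reagent binding. Before sorting, galactose-induced (36–48 hours) yeast display cells were stained for 1 hour at 4 °C with 10% biotinylated, detergent-solubilized Sf9 membrane reagent.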

Sequence | polyreactivity (PSR sort gate)
QVQLVESGGGLVQAGGSLRLSCAASGNTFSSYAMGWYRQAPGKVRELVAAISRRGGSTYYADSVKRRFTISRDHAKTTVYLQMNSLKPEDTAVYYCAADGTGFRSLRYDYWGQGTQVTVSS | high polyreactivity
QVQLVESGGGLVQAGGSLRLSCAASGNTFSWYAMGWYRQAPGKERELVAVIRDGSTYYADSVKGRFTISRDNAKNTVYLQMNRLKPEDTAVYYCRYDIWVWWSGAYDYWGQGTQVTVSS | low polyreactivity
QVQLVESGGGLVQAGGSLRLSCAASGNTFTFNAMGWYRQAPGKERELVAAINRGDSTNYADSVKGRFTISRDNAKNTVYLQMNSLKPEDTAVYYCAAGTLYWNYNRYDLYYYWGQGTQVTVSS | high polyreactivity
QVQLVESGGGLVQAGGSLRLSCAASGNTFTFYAMGWYRQAPGTERELVASITGRGGSTYYADSVKGRFTISRDNAKNTVYLQMNSLKPEDTAVYYCNADYNSFRYRPPTTRDYWGQGTQVTVSS | low polyreactivity
QVQLVESGGGLVQAGGSLRLSCAASGNTFTKYAMGWYRQAPGKERELVADITIGGSTYYADSVKGRFTISRDNAKNTVYLQMNSLKPEDTAVYYCNADVVVQYYFTYYRVFTYDYWGQGTQVTVSS | low polyreactivity
QVQLVESGGGLVQAGGSLRLSCAASGNTFTKYAMGWYRQAPGKERELVAGITRGGSTNYADSVKGRFTISRDNAKNTVYLQMNSLKPEDTAVYYCNARPVYGSRFYSAVRMEYWGQGTQVNVSS | low polyreactivity
QVQLVESGGGLVQAGGSLRLSCAASGNTFVPYAMGWYRQAPGKEREFVAAISSTSGSTYYADSVKGRFTISRDNAKNTVYLQMNSLTPEDTAVYYCAAANHKCSRMDYWGQGTQVTVSS | high polyreactivity
QVQLVESGGGLVQAGGSLRLSCAASGNTFVPYVMGWYRQAPGKERELVAAISRRGGSTRYADSVKGRFTISRDNAKNTVYLQMNSLNPEDTAVYYCAADGYVFALQRSRGVDFGYEYWGQGTQVTVSS | high polyreactivity
QVQLVESGGGLVQAGGSLRLSCAASGNTFVQNDMGWYRQAPGKEREFVAAITWIGGSTRYADSVKGRFTISRDNAKNTVYLQMNSLKPEDTAVYYCAVKPVGWPRYRVDYWGQGTQVTVSS | high polyreactivity
QVQLVESGGGLVQAGGSLRLSCAASGNTFVQNTMGWYRPATGKETELVAAISTRGGSTYYADSLKGRFTISRDNAKNTVYLQMNSLKPVDTAVYYCAARSKVRRSYDYWGQGTQVTVSS | high polyreactivity
QVQLVESGGGLVQAGGSLRLSCAASGNTFVTKAMGWYRQAPGKERELVAAINSSGGSTYYADSVKGRFTISRDNAKNTVYLQMNSLKPEDTAVYYCAADPLGITSGYGYWGQGTQVTVSS | low polyreactivity
QVQLVESGGGLVQAGGSLRLSCAASGNTFVTYTMGWYRQAPGKERELVADISSGGSTYYADSVKGRFTISRDNAKNTVYLQMNSLKPEDTAVYYCAVQQAVFRSYYIYHRYYWGQGTQVTVSS | high polyreactivity
QVQLVESGGGLVQAGGSLRLSCAASGNTFVYNDMGWYRQAPGKERELVADIRYSGSTYYADSVKGRFTISRDNAKNTVYLQMNSLKPEDTAVYYCAVDSYYFLKDPISYGLYYYWGQGSQVTVSS | low polyreactivity
QVQLVESGGGLVQAGGSLRLSCAASGNTFWGNAMGWYIQAPGKERELVAAITSGGNTNYADSVKGRFTISRDNAKNTVYLQMNSLKPEDTAVYYCNVDLKAWLPDGGSVDYWGQGTQVTVSS | low polyreactivity
QVQLVESGGGLVQAGGSLRLSCAASGNTFYGYAMGWYRQAPGKERELVASITLSGDSTYYADSVKGRFTISRDNAKKTVYLQMNSLKPEDTAVYYCAGVYTYPLGYYHYTYDYWGQGTQVTVSS | low polyreactivity
QVQLVESGGGLVQAGGSLRLSCAASGNTFYGYAMGWYRQAPGKERELVASITLSGDSTYYADSVKGRFTISRDNAKNTVYLQMNSLKPEDTAVYSCAGVYTYPLGYYHYTYDYWGQGTQVTVSS | low polyreactivity

Sequence | polyreactivity (PSR sort gate)
QVQLVESGGGLVQAGGSLRLSCAASGNTFYHYAMGWYRQAPGKERELVAAITWTGDSTYYADSVKGRFTISRDNAKNTVYLQMNSLKPEDTAVYYCNRVGYQSMNYWGQGTQVTVSS | low polyreactivity
QVQLVESGGGLVQAGGSLRLSCAASGNTFYQYAMGWYRQAPGKERELVAAIDWSGGSTYADSVKGRFTISRDNAKNTVYLQMNSLKPEDTAVYYCNASVKPSNVWSRGYDYWGQGTQVTVSS | low polyreactivity
QVQLVESGGGLVQAGGSLRLSCAASGNTFYQYAMGWYRQAPGTERELVAAISSSGGSTYYADSVKGRFTISRDNAKKTVYLQMNSLKPEDTAVYYCATDKSYGYYYWGQGTQVTVSS | low polyreactivity
QVQLVESGGGLVQAGGSLRLSCAASGNTFYRYAMGWYRQAPGKEREFVAGITSRGGSTSYADSVKGRFTISRDNAKNTVYLQMNSLKPEDTAVYYCAKKYFRPLRSYDYWGQGTQVTVSS | high polyreactivity
QVQLVESGGGLVQAGGSLRLSCAASGNTFYSNAMRWYRQAPGKERELVAAISTSGGSTFYADSVKGRFTISRDNAKNTVYLQMNSLKPEDTAVYYCAARSLRGHRYRYDYWGQGTQVTVSS | high polyreactivity
QVQLVESGGGLVQAGGSLRLSCAASGNTFYSYAMGWYRQAPGKERELVAAITWGGRTKYADSVKGRFTISRDNAKNTVYLQMNSLKPEDTAVDYCAARLYHGKTKYDYWGQGTQVTVSS | high polyreactivity
QVQLVESGGGLVQAGGSLRLSCAASGNTFYVNAMGWYRQAPGKERELVATISKRGSSTYYADSVKGRFTISRDNAKNTVFLQMNSLKPEDTAVYYCNAEGPSYYYIIYDYWGQGTQVTVSS | high polyreactivity
QVQLVESGGGLVQAGGSLRLSCAASGNTFYVNVMGWYRHAPGKEREFVAAISTRGVSTSYADSVKGRFTISRDYAKNTVYLQMNRLKPEDTAVYYCAKRFLPPGRAVTYDYWGQGTQVTVSS | high polyreactivity
QVQLVESGGGLVQAGGSLRLSCAASGNTFYYYAMGWYRQAPGKERELVASITWRGGDTYYADSVKGRFTISRDNAKNTVYLQMNSQKPEDTAVFYFAKPRLGRYDSMSYLGDYAGYVYWGQGTQVTLSS | low polyreactivity
QVQLVESGGGLVQAGGSLRLSCAASGNTIFHYAMGWYRQAPGKERELVAAISSADSTYYADSVKGRFTISRDNAKNTVYLQMNSLKPEDTAVYYCAKDRPNRPDLYDYWGQGTQVTLSS | low polyreactivity
QVQLVESGGGLVQAGGSLRLSCAASGNTIKDYTMGWYRQAPGKERELVASINSGGSTNYADSVKGRFTISRDNPKNTVYLQMNSLKPEDTAVYYSAKRAWSDYNPIDYWGQGTQVTVSS | low polyreactivity
QVQLVESGGGLVQAGGSLRLSCAASGNTIYKYTMGWSRQAPGKERELVAVISSSSGSTYYADSVKGRFTISRDNAKNTVYLQMNSLKPEDTAVYYCNKRGWWDLRHDYWGQGTQVTVSS | low polyreactivity
QVQLVESGGGLVQAGGSLRLSCAASGNTLAANAMGWYRQAPGKERELVAAITYSGGSTYYADSVKGRFTISRDNAKNTVYLQMSSLKPEDTAVYDCNAPYVFSAGFDYWGQGTQVTVSS | low polyreactivity
QVQLVESGGGLVQAGGSLRLSCAASGNTLDAYTMGWYRQAPGKERELVAAISRGGTRTYYADSVKGRFTISRDNAKNTVYLQMNSLKPEDTAVYYCNKQFPYSKYYIMGYWGQGTQVTVSS | high polyreactivity
QVQLVESGGGLVQAGGSLRLSCAASGNTLHRYVMGWYRPAPGKERELVAVITRGTSTYYADSVKGRFTISRDNAKNTVYLQMNSLKPEDTAVYYCAARYTFPYSRYDYWGQGTQVTVSS | low polyreactivity
